Target: human DNMT1 BAH1 domain (residues 728-900), Y775A (human) (UniProt P26358)
Experiment: ITC; 1 mM H4K20me peptide titrated over 0.1 mM hDNMT1 BAH1 or BAH2 domain; 25 mM Tris-HCl pH 7.5, 100 mM NaCl, 2 mM DTT; 5 °C; single-site binding mode

Chain of human DNMT1 BAH1 domain (residues 728-900), Y775A (human) (P26358 728-900 Y775A): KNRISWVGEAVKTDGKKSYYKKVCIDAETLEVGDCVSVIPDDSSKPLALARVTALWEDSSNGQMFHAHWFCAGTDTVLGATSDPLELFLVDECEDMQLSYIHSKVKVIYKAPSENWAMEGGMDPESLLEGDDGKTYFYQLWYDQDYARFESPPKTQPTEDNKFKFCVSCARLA

Kd: 361 µM
stoichiometry N: 1
Substance: H4(14-25)K20me3 peptide (from UniProt P62805 15-26)
